Source: patent US20040109857A1 (Novartis, published 2004)

Experiments:
[1] = biological target: chimpanzee CD40 expressed on peripheral blood B cells (chimpanzee) (UniProt K7BNQ5); experiment: cell-based or functional assay
human CD40 = biological target: T1, human CD40 (human, UniProt P25942 21-193, limits assumed); experiment: BIACore assay
T1 construct: CD40 as used in the BIACore assay; also called CD40 antigen

[2] = biological target: chimpanzee CD40 expressed on peripheral blood B cells (chimpanzee, UniProt K7BNQ5 21-277); experiment: cell-based or functional assay
Sequence of chimpanzee CD40 expressed on peripheral blood B cells (K7BNQ5 entry or part of it limits assumed): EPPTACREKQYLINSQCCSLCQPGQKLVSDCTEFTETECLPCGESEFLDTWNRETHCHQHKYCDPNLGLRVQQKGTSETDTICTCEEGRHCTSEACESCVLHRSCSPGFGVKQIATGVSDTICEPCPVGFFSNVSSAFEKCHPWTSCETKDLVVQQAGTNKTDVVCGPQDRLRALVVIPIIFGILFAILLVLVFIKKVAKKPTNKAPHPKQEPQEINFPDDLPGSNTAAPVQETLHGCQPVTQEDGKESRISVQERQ

Sequence of chimpanzee CD40 expressed on peripheral blood B cells (chimpanzee) (K7BNQ5 entry or part of it limits assumed): as above
T1 sequence (P25942 21-193 limits assumed): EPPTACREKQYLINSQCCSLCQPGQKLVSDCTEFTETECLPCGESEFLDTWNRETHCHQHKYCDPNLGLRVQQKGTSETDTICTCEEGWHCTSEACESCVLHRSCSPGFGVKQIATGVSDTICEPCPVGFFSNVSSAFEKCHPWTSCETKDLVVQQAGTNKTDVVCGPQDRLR

Molecule | CD40L fold increase of proliferation over huIgG2 at 5 ug/ml; chimp PBMC, 1 sample [1] [fold] | Kd (human CD40) [nM] | 15B8 fold increase of proliferation over huIgG2; chimp PBMC, 1 sample, 15B8 5 ug/ml [2] [fold]
human CD40L expressed on transfected cells (CHO cells; murine L-cells) (from UniProt P29965 1-261) (ligand) | 10.2 | – | –
15B8, fully human anti-CD40 monoclonal antibody (antibody, human IgG2, V domains shown, Human IgG2 isotype with human kappa light chain, from hybridoma 15B8 (Xenomouse); two heavy and two light chains, 1,284 residues in all; In one FACS format it was directly FITC-labelled; also called antagonist anti-CD40 antibody 15B8; 15B8 MAb) VH: QVQLQESGGGVVQPGRSLRLSCAASGFTFNNFGIHWVRQAPGKGLEWVAVISYDGSDKYYADSVKGRFTISRDNSKNTLNLQMNSLRAEDTAVYYCARDRRYYYHYYGMDVWGQGTMVTVSS VL: DIVMTQSPLSLSVAPGQPASISCKSSQSLLESYGETYLYWYLQKPGQPPQLLIYAVFKRFSGVPDRFSGSGSGTDFTLKISRVEAEDVGVYYCMQSMQLPLTFGGGTKVEIK | – | 3.1 | 2.46
